Reference: the supplement of paper PMC9170038

Test system: MS2 coat protein
Assay: apparent KD of MS2 coat protein; higher = weaker reporter binding
Conditions: Eterna round: R107
Summary of the method: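 Illumina sequencing clusters served as templates for on-chip transcription of the designed RNA switches. SNAP-549-labelled MS2 coat protein was then titrated in twofold steps from 0.7 or 1.5 nM to 3 µM, allowing 0.8–1.5 h per step at first and 10–20 min per step later. The buffer held 100 mM Tris-HCl pH 7.5, 80 mM KCl and 4 mM MgCl2, without or with constant ligand. Apparent KD is the median per design of normalised cluster binding-curve fits.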

[1] = input ligand: theophylline 20 uM
[2] = input ligand: tryptophan 2.4 mM
[3] = input ligand: theophylline 2 mM

Sequence: AGACAUGAGGAUCACCCAUGUAGUAUGGAUACCAGAUCCAGAUUUAUCCCUUGGCAGCUGUGGUACAGCGUUGCAUCGCUCCUAG [Exclusion - Theophylline A (Freestyle 13)]
- apparent KD of MS2 coat protein (input ligand: arginine 13.2 mM): 0.0289 µM
- apparent KD of MS2 coat protein [1]: 0.0445 µM
- apparent KD of MS2 coat protein [2]: 0.0317 µM

Sequence: AGACUGUCUUCGGACAGUCCGGACAGCCCGCGAGGACCGGUACGGCCGCCACUCGCGUGAGGAUCACCCAUGCGAGGCUGUCCGA [Omei Tryp A Exc A v1]
- apparent KD of MS2 coat protein (input ligand: arginine 13.2 mM): 0.0275 µM
- apparent KD of MS2 coat protein [1]: 0.0401 µM
- apparent KD of MS2 coat protein [3]: 0.046 µM
- apparent KD of MS2 coat protein [2]: 0.0699 µM

Sequence: AGAGCAUUGACGGCCGCCACUUAUGUCACAUGAGGAUCACCCAUGUGAUGGGUGAUAGCCCGGUUGAGGACCGGGUCAAUGCUCA [Omei Tryp SS B v6]
- apparent KD of MS2 coat protein (input ligand: arginine 13.2 mM): 0.0148 µM
- apparent KD of MS2 coat protein [1]: 0.0185 µM
- apparent KD of MS2 coat protein [3]: 0.0152 µM

Sequence: AGAGUCAGACAAAAGUCUGGCUCAGCCGAAGGAGCGUCCGAAAGGACAGGUAGGUCGCGGUUACCUGAGGAUCACCCGGGUUCCU [ArgAS 25 #OpenEnded #AlternativeMS2]
- apparent KD of MS2 coat protein (input ligand: arginine 13.2 mM): 0.0567 µM
- apparent KD of MS2 coat protein (input ligand: none): 0.219 µM
- apparent KD of MS2 coat protein [1]: 0.377 µM
- apparent KD of MS2 coat protein [3]: 0.59 µM
- apparent KD of MS2 coat protein [2]: 0.184 µM

Sequence: AGAUUCGACACGGCCGCCACUUGUGGUGGAUUAUCCUAUGUCGAACAUGAGGAUCACCCAUGUACAAGGACCGGGUGUUGAGUCU [XTryp B #21]
- apparent KD of MS2 coat protein (input ligand: arginine 13.2 mM): 0.156 µM
- apparent KD of MS2 coat protein [1]: 0.365 µM
- apparent KD of MS2 coat protein [3]: 0.447 µM

Sequence: AGCAUGUUAUCAGAUACCAGACAUCUUUUAAAACAUAUUACAUGAGGAUCACCCAUGUUGGUCCCUUGGCAGCUGAAAUAUUUCA [JR_Nu_SSTheophyB_Sub024]
- apparent KD of MS2 coat protein (input ligand: arginine 13.2 mM): 0.118 µM
- apparent KD of MS2 coat protein [1]: 0.223 µM
- apparent KD of MS2 coat protein [2]: 0.321 µM

Sequence: AGCCACUCGAGUGAUCCUCACGAGUGGCUACGAGGACCGGUACGGCCGCCACUCGAAUUAACAUGAGGAUCACCCAUGUAAUAAU [Brourdmod03]
- apparent KD of MS2 coat protein (input ligand: arginine 13.2 mM): 0.0292 µM
- apparent KD of MS2 coat protein [1]: 0.188 µM
- apparent KD of MS2 coat protein [3]: 0.27 µM

Sequence: AGCUGGGAUCCUCAGCGUCAAAGACGCAGUCGAGGACCGGUACGGCCGCCACUCGACACGAGGAUCACCCGUGUCAUUCCCAGCA [TrypAX 1 #SwitchBubble #AlternativeMS2 #MS2Late #CuTurnoff]
- apparent KD of MS2 coat protein (input ligand: arginine 13.2 mM): 0.0345 µM
- apparent KD of MS2 coat protein [1]: 0.387 µM
- apparent KD of MS2 coat protein [3]: 0.584 µM
- apparent KD of MS2 coat protein [2]: 1.46 µM

Sequence: AGUACACGAACUGAUACCAGCCGGACAUGAGGAUCACCCAUGUCCUACCUCUGUUCGGUUGGCCCUUGGCAGCAGUUCGUGUACA [Omei Theo B SS A v9]
- apparent KD of MS2 coat protein (input ligand: arginine 13.2 mM): 0.0405 µM
- apparent KD of MS2 coat protein [1]: 0.391 µM
- apparent KD of MS2 coat protein [2]: 0.0762 µM

Sequence: AGUACCAAUGAGGAUACCAGAGUGCGACGCCGAAACCUUGACAUGAGGAUCACCCAUGUACUCCCUUGGCAGCCUGUACUUGCCA [theeternabot_exclusion_MS2_Theo_B_17]
- apparent KD of MS2 coat protein (input ligand: arginine 13.2 mM): 0.0228 µM
- apparent KD of MS2 coat protein [1]: 0.0407 µM
- apparent KD of MS2 coat protein [2]: 0.0349 µM

Sequence: AGUACUCGAACGGAUACCAGCCGGACAUGAGGAUCACCCAUGUCCUACCAUGUCUCGGUUGGCCCUUGGCAGCCGUUCGUGUACA [Omei Theo B SS A v2]
- apparent KD of MS2 coat protein (input ligand: arginine 13.2 mM): 0.017 µM
- apparent KD of MS2 coat protein [1]: 0.469 µM
- apparent KD of MS2 coat protein [2]: 0.0958 µM

Sequence: AGUAGCUGCCGAAGGAGCGCCGUGUUCCUACAUGAGGAUCACCCAUGUAGCGUUGGGUUACGGCAGGUAGGUCGCGGCGGAUAGG [Same State - Arginine B / B]
- apparent KD of MS2 coat protein (input ligand: arginine 13.2 mM): 0.03 µM
- apparent KD of MS2 coat protein (input ligand: none): 0.0343 µM
- apparent KD of MS2 coat protein [1]: 0.119 µM
- apparent KD of MS2 coat protein [3]: 0.0738 µM
- apparent KD of MS2 coat protein [2]: 0.119 µM

Sequence: AGUCUUAAAGGAAGGAGCGCAGUCAUAACAUGAGGAUCACCCAUGUCGAUGUGAGGGUCAUUGCAGGUAGGUCGCCUUACUAAGA [Same State - Arginine B (Freestyle 5)]
- apparent KD of MS2 coat protein (input ligand: arginine 13.2 mM): 0.0228 µM
- apparent KD of MS2 coat protein (input ligand: none): 0.0404 µM
- apparent KD of MS2 coat protein [1]: 0.046 µM
- apparent KD of MS2 coat protein [3]: 0.0302 µM
- apparent KD of MS2 coat protein [2]: 0.0406 µM

Sequence: AGUGUAUCCAUCGAUACCAGCCACAACGUAACAUACACAUGAGGAUCACCCAUGUUGUGUGGCCCUUGGCAGCGGUGCCUGUGUA [Same State - Theophylline B Attempt #1 (HarryS)]
- apparent KD of MS2 coat protein (input ligand: arginine 13.2 mM): 0.0144 µM
- apparent KD of MS2 coat protein [1]: 0.0164 µM
- apparent KD of MS2 coat protein [2]: 0.0139 µM

Sequence: AGUGUUGUCUGAAGGAGCGGCCCUUGAUCCUCAUGAGACAUGAGGAUCACCCAUGUCUCGGGCCAGGUAGGUCGCAGGCAUCACA [Omei Arg B SS v1]
- apparent KD of MS2 coat protein (input ligand: arginine 13.2 mM): 0.0226 µM
- apparent KD of MS2 coat protein (input ligand: none): 0.0205 µM
- apparent KD of MS2 coat protein [1]: 0.0341 µM
- apparent KD of MS2 coat protein [3]: 0.0233 µM
- apparent KD of MS2 coat protein [2]: 0.0237 µM
